Measurements from article doi:10.1101/2024.10.28.620641 (bioRxiv, 2024).

Target: the molecule itself
Test: cryo-EM structure

B1: Caulobacter crescentus Tad pilus ATPase CpaF (enzyme, Caulobacter crescentus NA1000, UniProt Q9L714 1-501, looked up)
chain: MFGKRDSSASGDPKAPPPAPAGGATIATRPQRVEPVAAPEPKAPAPKVSGPAPKPTVGLEQLRAAQGQPQTANIVREQSDYYHATKTTIFNALLNTIDLSQLAQLDLKQAGEEIRDIVAELVAIKNVSMSVAEQEHLVQDIINDVLGYGPLEPLLARDDIADIMVNGAHRVFIEVGGKVQLTNVRFRDNLQLMNICQRIVSQVGRRVDESSPICDARLPDGSRVNVIAPPLALDGPTLTIRKFKKDKLTMKNLVEFASISPEGARVLGVIGACRCNLVISGGTGSGKTTLLNTMTAFIDPTERVVTCEDAAELQLQQPHVVRLETRPPNLEGSGAVTMRDLVKNCLRMRPERIIVGEVRGPEAFDLLQAMNTGHDGSMGTLHANSPREAISRIESMITMGGYGLPSKTIKEMIVGSVDVIIQAARLRDGSRRITHITEVVGLEGDVIVTQDLFVYEITGEDEHGKVVGKHRSTGIARPRFWDRARYYGLERELAEALDAAE
stoichiometry N: 6
